Here are results for one molecule from US20060115839A1 (published 2006).

For this experiment, the target named is endogenous histone H3 in U2OS cells (human, UniProt P68431 2-136). The experiment is described as follows: formaldehyde crosslinking in irradiated U2OS cells, nickel bead capture, H3 immunoblot (FIG. 3g). As to the method:
Non-transfected U2OS osteosarcoma cells and transfected U2OS cells expressing His-tagged GFP-53BP1 fusion proteins with wild-type or mutant (Asp1521Arg) 53BP1 sequences were pre-extracted with Triton-X100 in situ 15 min after irradiation and then treated with formaldehyde to crosslink interacting proteins. His-tagged GFP-53BP1 was then affinity-purified on nickel-coated beads and bound histone H3 was detected by immunoblotting after the crosslinks were reversed by boiling. Histone H3 was captured on beads incubated with extracts from His-tagged GFP-wild-type 53BP1 expressing cells treated with formaldehyde, but not on beads incubated with extracts from cells that were mock-crosslinked or that were expressing the Asp1521Arg mutant protein (FIG. 3g). Further, the crosslinking was specific for histone H3, because histone H2A, although present in the Triton-X100 insoluble material, was not captured by the beads (data not shown).
Proteins were crosslinked with formaldehyde³⁰. Parental U2OS cells and U2OS cells expressing N-terminally His-tagged GFP-53BP1 fusion proteins containing residues 1220-1711 of 53BP1 were exposed to 9 Gy IR. […] Histone H3 was detected by immunoblotting after the crosslinks were reversed by boiling.
A general note: Immunoblotting shows a protein as a band on a membrane.

B1: N-terminally His-tagged GFP-53BP1 fusion protein containing residues 1220-1711 of 53BP1 with Asp1521Arg (other)
chain: QGEEEFDMPQPPHGHVLHRHMRTIREVRTLVTRVITDVYYVDGTEVERKVTEETEEPIVECQECETEVSPSQTGGSSGDLGDISSFSSKASSLHRTSSGTSLSAMHSSGSSGKGAGPLRGKTSGTEPADFALPSSRGGPGKLSPRKGVSQTGTPVCEEDGDAGLGIRQGGKAPVTPRGRGRRGRPPSRTTGTRETAVPGPLGIEDISPNLSPDDKSFSRVVPRVPDSTRRTDVGAGALRRSDSPEIPFQAAAGPSDGLDASSPGNSFVGLRVVAKWSSNGYFYSGKITRDVGAGKYKLLFDRGYECDVLGKDILLCDPIPLDTEVTALSEDEYFSAGVVKGHRKESGELYYSIEKEGQRKWYKRMAVILSLEQGNRLREQYGLGPYEAVTPLTKAADISLDNLVEGKRKRRSNVSSPATPTASSSSSTTPTRKITESPRASMGVLSGKRKLITSEEERSPAKRGRKSATVKPGAVGAGEFVSPCESGDNTGE
notes: Expressed in U2OS cells; crosslinked in situ with formaldehyde; also called His-tagged GFP-53BP1 D1521R; Asp1521Arg mutant protein; not shown: N-terminal His tag and GFP, with any linkers
On to B1, for which the binding result is on record as “no binding”.
